Data: patent US11034736B2, “Anti-viral cnidarins” (priority 2014, dated 2021)

Columns and labels:
CEM-SS cells = test: Direct toxicity to uninfected CEM-SS control cells (XTT); format: cell-based, human
Method: A 2,3-bis-[2-methoxy-4-nitro-5-sulfophenyl]-2H-tetrazolium-5-carboxanilide inner salt (XTT)-tetrazolium-based assay was used to determine the anti-HIV activity of CNID-1, -2 and -3 against a T-tropic laboratory strain (HIV-1RF) in T-lymphoblastic CEM-SS cells as described previously (Gulakowski et al., J. Virol. Methods, 33: 87-100 (1991)). CEM-SS cells were maintained in RPMI 1640 media without phenol red and supplemented with 10% fetal bovine serum (BioWhittaker), 2 mM L-glutamine (BioWhittaker), and 50 μg/ml gentamicin (BioWhittaker) (complete medium). Exponentially growing cells were washed and resuspended in complete medium, and a 50 μl aliquot containing 5×10^3 cells was added to individual wells of a 96-well round-bottom microtiter plate containing serial dilutions of the respective cnidarin protein in a volume of 100 μl of medium. Stock supernatants of HIV-1RF were diluted in complete medium to yield sufficient cytopathicity (80-90% cell kill in 6 days), and a 50 μl aliquot was added to appropriate wells. Plates were incubated for 6 days at 37° C. and then stained for cellular viability using XTT.
The HIV reverse transcriptase inhibitor 3′-Azido-3′-deoxythymidine (AZT) was used as a positive control. All assays were carried out in triplicate for all viruses and cells.

HIV-1Ba-L = test: HIV-1 Ba-L replication in human primary macrophage cultures, p24 ELISA; format: cell-based; settings: M-tropic, human primary macrophages
Source text: (§1) To test the anti-HIV activity of CNID1 against HIV primary isolates in fresh human cells, monocyte-tropic HIV-1 strain Ba-L was obtained from the NIAID AIDS Research and Reference Reagent Program (National Institutes of Health, Bethesda, Md.). The low passage HIV-1 pediatric isolate ROJO was derived as described previously (Buckheit et al., AIDS Res. Hum. Retroviruses, 10: 1497-1506 (1994)). Human peripheral blood mononuclear cells (PBMCs) and macrophages were isolated from hepatitis and HIV seronegative donors following Ficoll-Paque centrifugation as described elsewhere (Gartner & Popovic, Techniques in HIV Research, Aldovini, A. and Walker B., eds., pp. 59-63, Stockton Press, New York, 1990). Antiviral assays were carried out with 3-day-old phytohaemagglutinin/interleukin-2 stimulated PBMCs or 6-day-cultured monocyte/macrophages. […] HIV-1 replication in PBMC (ROJO) or monocyte macrophage (Ba-L) cultures were determined by measurement of reverse transcriptase activity (Buckheit et al., Antiviral Res., 21: 247-265 (1993)) in the supernatants or p24 antigen expression by ELISA (Coulter, Hialeah, Fla.), respectively. Cell viability by formazan dye reduction was determined in replicated cultures using the CellTiter reagent (Promega, Madison, Wis.). […]

PBMC = test: Cell viability of PBMC cultures (CellTiter formazan dye reduction); format: cell-based, human
Source text: as §1

HIV-1IIIB = test: Viral fusion assay, chemiluminescence in HeLa CD4 LTR β-gal cells; format: cell-based
Method: Attachment and fusion assays were performed in HeLa-CD4-LTR-β-galactosidase cell lines as described previously (Gartner & Popovic, (1990), supra) with the following modifications. Following the interaction of HIV-1IIIIIB with HeLa CD4 LTR β-gal cells, viral attachment to HeLa CD4 LTR β-gal cells was detected as cell-associated p24 antigen following a 1 hour adsorption of virus and vigorous washing for removal of unbound virus. Fusion of HIV-1IIIIB with HeLa CD4 LTR β-gal cells was detected by chemiluminescence using a single-step lysis and detection method (Tropix Gal-screen, Bedford, Mass.) and results reported as EC50 values. Chicago Sky Blue, a polysulfonic acid dye inhibitor of HIV attachment and fusion, was used as a positive control for all assays (Clanton et al., J. Acquired Immune Defic. Syndr., 5: 771-781 (1992)).

HIV-1US/92/727 = test: Anti-HIV evaluation in PHA-stimulated human PBMCs, reverse transcriptase in supernatant; format: cell-based; settings: HIV-1US/92/727, human PBMCs, 7 days
Method: The cultures were incubated for 7 days at 37° C./5% CO2. Efficacy of the compounds was evaluated by measuring the amount of reverse transcriptase in the culture supernatant and toxicity was evaluated using XTT to measure cell viability. AZT was evaluated in parallel as an assay control.

HIV-1IIIB gp120 = HIV-1IIIB gp120 (Human immunodeficiency virus type 1 group M subtype B, UniProt P04578); settings: ELISA
Method: (§2) High protein binding Greiner 96-well plates (VWR, Bridgeport, N.J.) were coated with 1 pmol/well of recombinant HIV-1IIIIB gp120 (Immuno Diagnostics, Woburn, Mass.) or recombinant HIV-1HXB2 gp41 (Vybion Inc., Ithaca, N.Y.) at 4° C. overnight. The wells were emptied and then blocked with 200 μl/well of 3% non-fat dry milk (Bio-Rad, Hercules, Calif.) blocking solution for 2 hrs. A control plate was incubated with blocking solution only. After washing three times with PBST, 0.5-log10 serial dilutions of rCNID-1-Trx were added to triplicate wells of gp120−, gp41− and the blocking solution control plate, and the plates were incubated for 2 hrs. The plates were washed with PBST and 100 W/well of a 1:250 dilution of polyclonal rabbit anti-CNID-1 antibody was added and allowed to incubate for 1 hr, followed by three washes with PBST. Goat anti-rabbit (H+L), peroxidase conjugated secondary antibody (Thermo Fisher Scientific Inc., Rockford, Ill.) was added to each well (100 μl/well of a 1:1000 dilution) and further incubated for 1 hr, followed by three washes with PBST. The TMB 2-component Microwell peroxidase substrate kit (KPL Inc., Gaithersburg, Md.) was used for peroxidase detection: 100 W/well, incubation for 5-10 min and the reaction was stopped by addition of 0.5M HCl (100 W/well) before reading the absorbance at 450 nm.
Briefly, 100 ng/wells of glycosylated recombinant HIV-1IIIB gp120 (Immuno Diagnostics, Woburn, Mass.) or nonglycosylated HIV-1 gp120 (MyBioSource LLC, San Diego, Calif.) was added to the wells of two 96-well plates, and incubated overnight at 4° C. The plates were washed and blocked as previously described. Serial dilutions of rCNID-1-Trx were added (100 W/well); incubation done for 2 hrs. The plates were then washed and visualized using anti-CNID-1 polyclonal antibodies as above.

HIV-1HXB2 gp41 = HIV-1HXB2 gp41 (Human immunodeficiency virus type 1 group M subtype B, UniProt P04578); settings: ELISA, 100 ng/well gp41
Method: as §2

B1: CNID-1: HIV-inhibitory protein from soft coral Synthecium sp.; 172 amino acids, 18,122 Da, SEQ ID NO: 1 (protein)
chain: GRATLGQLKTSTIPPVTFDVPFDGANIPQDVRFTIATVNGGKGALYNAELGESAGHTIVLESDGDHPIPGTFDPKSGRGLDYLPRGLVLFSSHNYVGNMKMYTEPDSDITADFPPGTPFGVSSAITGEGSAFQLNTGIDHTGEFEIIPPNTKRNLAGVFDNEIRSVSPTGGK
For B1, the CC50 (CEM-SS cells) was 112 nM, the EC50 (HIV-1Ba-L) was 1.05 nM and the CC50 (PBMC) was 144 nM. For the same molecule, the “Inhibition of viral fusion” value (HIV-1IIIB) was “inhibit HIV viral fusion”, the EC50 (HIV-1IIIB; read-out: Inhibition of Fusion EC50) was 1.49 nM and the EC50 (HIV-1US/92/727) was 0.0427 µg/mL. For the same molecule, the “Binding to glycosylated versus non-glycosylated gp120” value (HIV-1IIIB gp120; 100 ng/well) was “bound better to glycosylated gp120 as compared to non-glycosylated gp120”, the “Binding to gp120” value (HIV-1IIIB gp120; 100 ng/well gp120) was “specific binding to viral glycoprotein gp120 in a concentration-dependent manner” and the “Binding to gp41” value (HIV-1HXB2 gp41) was “not gp41”.
